Patent US6451762B1 (Novo Nordisk A/S, priority 1997, dated 2002)

Experiments:
[1] = Disappearance after subcutaneous injection in pigs; conditions: pigs
Description: The gel filtration experiment using the conditions prescribed in this section is the direct physico-chemical method to reveal the potential aggregate formation property of an insulin derivative. Disappearance after subcutaneous injection in pigs reflects the combination of the albumin binding and polymer formation properties of the insulin derivative, besides a variety of biological factors.

[2] = Gel filtration method 2 on Superose 6HR (HPLC, 37° C.); type: physicochemical; conditions: 140 mM NaCl, 10 mM tris, pH 7.4
Protocol: An alternative method to measure the capability of insulin derivatives of forming soluble high molecular weight aggregates was developed, suitable for HPLC equipment. The column dimensions, injection volume, and flow rate correspond to the first method, whereas the temperature is increased to 37° C. and the phosphate buffer is changed to trishydroxymethylaminomethan hydrochloride and additional sodium chloride. The aggregated state of insulin is defined to elute before the gel filtration standard aldolase like in the first method.

[3] = Gel filtration on Sephacryl S-300 HR (aggregate formation, method 1); type: physicochemical; design: key to KAV: KAV=(VE-V0)/(VT-V0); fraction of available elution volume; conditions: Sephacryl S-300 HR, pH 7.4 eluent; Zinc free
[4] = target: Albumin (Homo sapiens, UniProt P02768); assay: Albumin binding constant; conditions: normalised using Lys^B29(N^ε tetradecanoyl) des(B30) human insulin as reference

Human insulin [reference compound]
Disappearance T50% ([1]; subcutaneous injection, normalised using Lys^B29(N^ε tetradecanoyl) des(B30) human insulin as reference): (2) h | Disappearance in pigs, T50% ([1]; subcutaneous, normalised to Lys^B29(N^ε tetradecanoyl-) des(B30) human insulin (T50% = 14.3 h)): 2 h | KAV (Superose 6HR) 2Zn^2+/6 ins ([2]; 2 Zn2+/6 ins): 0.64 | KAV (Superose 6HR) 3Zn^2+/6 ins ([2]; 3 Zn2+/6 ins): 0.64 | KAV [3]: 0.72 | Albumin binding Kass [4]: 0 (mol/l)^−1
